Positions count from the first letter of the chain named. Names and notes keep the numbering of the source. One block for each binder: values may come before it.
Experiments:
[1] = target: T1, CD3 on human T cells (human PBMCs or isolated T cells used as effector cells) (human, UniProt P07766 23-207; P04234 22-171; P09693 23-182); assay: cell-based or functional assay
[2] = target: T1, CD3 on human T cells (human PBMCs or …); assay: cell-based or functional assay; remark: listed apart in the source
[3] = target: human CD3E&D heterodimer protein (construct not specified; FIG. 9A and FIG. 12) (human, UniProt P07766 23-126; P04234 22-105); assay: ELISA on coated human CD3e&d heterodimer protein (construct not named on the sheet)
human CD3E&D heterodimer protein (construct not specified; FIG. 9A and FIG. 12), sequence (P07766 23-126, chain 1 of 2): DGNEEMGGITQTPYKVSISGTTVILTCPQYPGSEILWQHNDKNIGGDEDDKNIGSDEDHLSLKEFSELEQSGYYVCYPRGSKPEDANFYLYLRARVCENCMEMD
human CD3E&D heterodimer protein (construct not specified; FIG. 9A and FIG. 12), sequence (P04234 22-105, chain 2 of 2): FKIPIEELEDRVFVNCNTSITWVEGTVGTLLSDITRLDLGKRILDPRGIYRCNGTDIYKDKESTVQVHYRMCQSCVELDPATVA

[4] = target: T2, Biotinylated human CD3e&d protein (Acro Biosystems, CDD-H82W6) (human, UniProt P07766 23-126; P04234 22-105, biotinylated protein; chain and site not stated); assay: BLI (Octet RED96e), biotinylated antigen on SA biosensors, antibody 0.375-12 nM
T2 construct: Bought protein loaded on SA Octet biosensors; also called human CD3 protein
T2 sequence (P07766 23-126, chain 1 of 2): as the sequence (P07766 23-126, chain 1 of 2) above
T2 sequence (P04234 22-105, chain 2 of 2): as the sequence (P04234 22-105, chain 2 of 2) above
Description: To determine the binding affinities of anti-CD3 antibodies to human or cynomolgus monkey CD3e&d heterodimer proteins, bio-layer interferometry (BLI) assays were carried out by using Octet® RED96e.
Biotinylated human CD3e&d protein (Acro Biosystems, CDD-H82W6) or biotinylated cynomolgus CD3e&d protein (Acro Biosystems, CDD-C82W6) was first loaded onto the surface of SA Octet biosensors (Sartorius, 18-5019) to reach capture levels between 0.5-0.8 nm. The loaded biosensors were then dipped in wells containing 2-fold serial dilutions of testing antibodies to detect association signals, followed by dissociation steps in wells containing kinetic buffer. The association phase was 180 seconds, and the dissociation phase was 900 seconds. The sensorgrams were recorded, and the reference signals were subtracted before curve fitting using ForteBio Data Analysis 11.0 software. Association rates (kon) and dissociation rates (koff) were calculated using a simple one-to-one Langmuir binding model. The equilibrium dissociation constant (KD) was calculated as the ratio of koff/kon.

T1 sequence (P07766 23-207, chain 1 of 3): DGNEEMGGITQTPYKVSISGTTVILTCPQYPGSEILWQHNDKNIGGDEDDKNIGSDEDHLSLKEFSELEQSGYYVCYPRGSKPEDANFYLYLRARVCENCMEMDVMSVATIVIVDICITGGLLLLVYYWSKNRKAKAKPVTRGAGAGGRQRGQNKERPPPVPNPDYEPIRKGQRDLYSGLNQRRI
T1 sequence (P04234 22-171, chain 2 of 3): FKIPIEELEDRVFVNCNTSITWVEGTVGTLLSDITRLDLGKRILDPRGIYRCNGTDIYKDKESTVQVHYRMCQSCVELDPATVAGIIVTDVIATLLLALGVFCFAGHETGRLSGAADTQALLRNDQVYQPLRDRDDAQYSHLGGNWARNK
T1 sequence (P09693 23-182, chain 3 of 3): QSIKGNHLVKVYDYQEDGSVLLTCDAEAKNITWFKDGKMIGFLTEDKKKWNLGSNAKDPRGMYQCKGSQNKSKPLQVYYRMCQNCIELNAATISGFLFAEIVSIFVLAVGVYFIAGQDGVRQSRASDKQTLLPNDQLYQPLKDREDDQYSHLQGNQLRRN

B1: PR006002, anti-B7H4xCD3 VH(A1)-Fc-scFv(PR003366), hIgG1(dCH1, KiH, LALA) (bispecific antibody)
chain 1: not shown
chain 2: EIVMTQSPASLSVSPGERATLSCRASQSVSSNLAWYQQKPGQAPRLLIYGASTRATGIPARVSGGGSGTEFTLTISSLQSEDFAVYYCQQYKNWPFTFGPGTKLEIKGGGGSGGGGSGGGGSGGGGSQVQLVQSGAEVKKPGSSMRVSCKASEDTFSSYAISWVRQAPGQGLEWMGGTAPIFGTTNYAQKFQGRVTITADKSTSTAYMELSSLRSEDTAVYYCARGGPYFDYWGQGTLVTVSSASEPKSSDKTHTCPPCPAPEAAGGPSVFLFPPKPKDTLMISRTPEVTCVVVDVSHEDPEVKFNWYVDGVEVHNAKTKPREEQYNSTYRVVSVLTVLHQDWLNGKEYKCKVSNKALPAPIEKTISKAKGQPREPQVCTLPPSREEMTKNQVSLSCAVKGFYPSDIAVEWESNGQPENNYKTTPPVLDSDGSFFLVSKLTVDKSRWQQGNVFSCSVMHEALHNHYTQKSLSLSPGK
EC50 of T cell-mediated cytotoxicity to MDA-MB-468 (RTCA) [1]: 33 pM
Max cytotoxicity (%) of T cell-mediated cytotoxicity to MDA-MB-468 (RTCA) [1]: 94.4%
EC50 of T cell-mediated cytotoxicity to MDA-MB-468 (RTCA, human T cells, E:T 10:1) [2]: 1.11 pM

B2: PR010987, anti-B7H4xCD3 S140-Fc-scFv(PR003366), hIgG1(dCH1, KIH, AAA) (bispecific antibody)
chain 1: EVQLVESGGGLVQPGGSLRLSCAASGRTSGIPAMAWFRQAPGKGLEWVAMAWSGGGTIYADSVKGRFTISRDNSKNTLYLQMNSLRAEDTAVYYCARGRSTSNRADQYNYWGQGTLVTVSSASEPKSSDKTHTCPPCPAPEAAGAPSVFLFPPKPKDTLMISRTPEVTCVVVDVSHEDPEVKFNWYVDGVEVHNAKTKPREEQYNSTYRVVSVLTVLHQDWLNGKEYKCKVSNKALPAPIEKTISKAKGQPREPQVYTLPPCREEMTKNQVSLWCLVKGFYPSDIAVEWESNGQPENNYKTTPPVLDSDGSFFLYSKLTVDKSRWQQGNVFSCSVMHEALHNHYTQKSLSLSPGK
chain 2: B1 chain 2 with G267A
EC50 of T cell-mediated cytotoxicity to MDA-MB-468 (RTCA, human T cells, E:T 10:1) [2]: 263 pM

B3: PR011628, anti-CD3 S135 HCAb hIgG1(C220S,AAG) (antibody, V domains shown)
VH: EVQLLESGGGLVQPGGSLRLSCAASGRTSGIPAMSWVRQAPGKGLEWVAMAWSGGGTIYADSVKGRFTISRDNSKNTLYLQMNSLRAEDTAVYYCAAGRSTSNRADQYNYWGQGTLVTVSS
notes: Humanized variant of PR006364; heavy-chain-only antibody
binding result [3]: binds

B4: PR011629, anti-CD3 S136 HCAb hIgG1(C220S,AAG) (antibody, V domains shown)
VH: B3 VH with G44E, L45R, W47F, L116Q
notes: as for B3
Kd [4]: 168 pM
koff [4]: 0.00014 s⁻¹
kon [4]: 833000 M⁻¹ s⁻¹

More lines, now with the values ahead:

binding result [3]: binds
B5: PR011631, anti-CD3 S138 HCAb hIgG1(C220S,AAG) (antibody, V domains shown)
VH: B3 VH with R104Y
notes: as for B3

binding result [3]: binds
B6: PR011630, anti-CD3 S137 HCAb hIgG1(C220S,AAG) (antibody, V domains shown)
VH: B3 VH with G44E, L45R, W47F, R104Y, L116Q
notes: as for B3

binding result [3]: binds
B7: PR011632, anti-CD3 S140 HCAb hIgG1(C220S,AAG) (antibody, V domains shown)
VH: B3 VH with L5V, S35A, V37F, A97R
notes: as for B3
